We go through two molecules from US7625735B2, “Recombinant kinase from insect cells for the synthesis of nucleoside monophosphates” (Roche Diagnostic Operations, Inc., priority 1998, dated 2009).

A short description of data set [1]: Kinetic constants of the Drosophila kinase compared to known analogous enzymes. The format is biochemical. The following applies: versus hitherto known kinases, Kc values. The source says: Furthermore, […]; as a consequence, for the synthesis of the individual nucleosides it is no more necessary to have the corresponding specific kinase. Particularly advantageous is the low specificity for the synthesis of modified nucleoside analogues, such as dideoxynucleosides or base- or sugar-modified nucleosides. Base-modified nucleosides are for example 7-deaza-nucleosides, C-nucleosides and nucleotides labelled with reporter groups (dye, digoxigenin, biotin) at the base. Sugar-modified nucleosides are for example azathymidine, arabinosyl-thymidine. The specific activity kc of the kinase according to the invention is several times higher than that of the kinases known before. The activity of the enzyme was measured as described in the reference: Munch-Peterson et al. (1991) J. Biol. Chem. 266, 9032-9038. By this, a considerably lower amount of enzyme is necessary to synthesize the dNMPs. (factor 3.5-14000, cf. Kc values in table 1). The specificity constant (kc/KM) of the kinase according to the invention exceeds that of the hitherto known kinases by several powers and is in the region of the diffusion constant. This leads to the complete yield when the kinase is added to the d-NMP synthesis. They are higher by factor 2-6500 than the hitherto known kinases, s. FIG. 1. […]

The nature of data set [2]: Activity of the kinase from D. Melanogaster at different temperatures. The format is biochemical. The settings on record: wide optimum. The protocol:
The activity of the Dm-nucleoside kinase was determined at different temperatures. […] (see FIG. 6).
The activity test is described in reference No. 14.

Data set [3] is described as follows: Stability: remaining activity of recombinant versus native Dm-kinase after incubation at 37° C. The format is physicochemical. The protocol: The activity of the recombinant Dm-kinase compared to native, isolated Dm-kinase was determined. After different periods of incubation in 50 mM Tris 7.5+2.5 mM MgCl2 at 37° C. the remaining activity was determined.

B1: recombinant Dm-kinase: recombinant multifunctional deoxynucleoside kinase from Drosophila Melanogaster, expressed in E. coli (protein, UniProt Q9XZT6 1-250, looked up)
Deoxynucleoside kinase: MAEAASCARKGTKYAEGTQPFTVLIEGNIGSGKTTYLNHFEKYKNDICLLTEPVEKWRNVNGVNLLELMYKDPKKWAMPFQSYVTLTMLQSHTAPTNKKLKIMERSIFSARYCFVENMRRNGSLEQGMYNTLEEWYKFIEESIHVQADLIIYLRTSPEVAYERIRQRARSEESCVPLKYLQELHELHEDWLIHQRRPQSCKVLVLDADLNLENIGTEYQRSESSIFDAISSNQQPSPVLVSPSKRQRVAR
Regarding B1, in data set [1], the “factor by which specific activity kc exceeds known kinases (lower amount of enzyme necessary)” value was 3.5-14000. Also, the “temperature of maximum activity” value in data set [2] was 60 °C. In data set [3] (50 mM Tris 7.5+2.5 mM MgCl2, 37° C., without addition of BSA), the “stability (remaining activity)” value is reported as “remains stable”. Further, the half-life is recorded as 50 h in data set [3] (Tris buffer in the presence of MgCl2, 37° C.); 31 h in data set [3] (Tris buffer without MgCl2, 37° C.); 28 h in data set [3] (pure water).

B2: native Dm-kinase: native, isolated deoxynucleoside kinase from Drosophila Melanogaster, used for comparison (protein, UniProt Q9XZT6 1-250, looked up)
Deoxynucleoside kinase: B1 Deoxynucleoside kinase
As for B2, in data set [3] (50 mM Tris 7.5+2.5 mM MgCl2, 37° C., with 2.5 mg/ml BSA), the “stability (remaining activity)” value is “remains stable”. Moreover, in data set [3] (under the same conditions), the half-life was under 0.2 h. Besides, in data set [3] (within 50 min, 50 mM Tris 7.5+2.5 mM MgCl2, 37° C., without BSA), the remaining activity is under 20%.
